From article PMC6555819, “Comprehensive study of nuclear receptor DNA binding provides a revised framework for understanding receptor specificity”
Positions count from the first letter of the chain named.

B1: NRC3_wobSeed136_DR5_G11T_o1 (dsDNA)
DNA 1: GCTAGCCTAGTTCATTCAGGGGCCAGTATAGAAAGCGCGATTGACAGCGTAGAATGAAGG
DNA 2: CCTTCATTCTACGCTGTCAATCGCGCTTTCTATACTGGCCCCTGAATGAACTAGGCTAGC
B2: NRC3_random_hg19_315_o1 (dsDNA)
DNA 1: GCAGTCACACCTAACTGCAGGGAAGTCTATGAAATGGCGATTGACAGCGTAGAATGAAGG
DNA 2: CCTTCATTCTACGCTGTCAATCGCCATTTCATAGACTTCCCTGCAGTTAGGTGTGACTGC
B3: NRC3_random_hg19_149_o1 (dsDNA)
DNA 1: GCATGAAACCATGCTCGAGTGTGTGTGTGTGTGTATGCGATTGACAGCGTAGAATGAAGG
DNA 2: CCTTCATTCTACGCTGTCAATCGCATACACACACACACACACTCGAGCATGGTTTCATGC
B4: NRC3_random_hg19_241_o1 (dsDNA)
DNA 1: GCTGTAACGTGGGCTTCACTGTCGGGTCCAGCCCACGCGATTGACAGCGTAGAATGAAGG
DNA 2: CCTTCATTCTACGCTGTCAATCGCGTGGGCTGGACCCGACAGTGAAGCCCACGTTACAGC
B5: NRC3_wobSeed66_DR2_T16G_o1 (dsDNA)
DNA 1: GCAATACAGGGTCACGAGGCCAGAGTAGGTACGAATGCGATTGACAGCGTAGAATGAAGG
DNA 2: CCTTCATTCTACGCTGTCAATCGCATTCGTACCTACTCTGGCCTCGTGACCCTGTATTGC
B6: NRC3_wobSeed71_DR2_G12T_o1 (dsDNA)
DNA 1: GCCGAACGAGGTCATGAGTTGATAGCAAATGCCGATGCGATTGACAGCGTAGAATGAAGG
DNA 2: CCTTCATTCTACGCTGTCAATCGCATCGGCATTTGCTATCAACTCATGACCTCGTTCGGC
B7: NRC3_wobSeed14_DR0_T23G_o1 (dsDNA)
DNA 1: GCCCTGCTAGGTCATGGTCAGCGAATCTACAGTATGGCGATTGACAGCGTAGAATGAAGG
DNA 2: CCTTCATTCTACGCTGTCAATCGCCATACTGTAGATTCGCTGACCATGACCTAGCAGGGC
B8: NRC3_wobSeed15_DR0_G23A_o1 (dsDNA)
DNA 1: GCCGAACTAGGTCAAGGACAGTAAATCTCCGCACGCGCGATTGACAGCGTAGAATGAAGG
DNA 2: CCTTCATTCTACGCTGTCAATCGCGCGTGCGGAGATTTACTGTCCTTGACCTAGTTCGGC
B9: NRC3_wobSeed50_DR2_G11T_o1 (dsDNA)
DNA 1: GCCCTAGTTGTTCAGGAGGTCACACACCGGATATGAGCGATTGACAGCGTAGAATGAAGG
DNA 2: CCTTCATTCTACGCTGTCAATCGCTCATATCCGGTGTGTGACCTCCTGAACAACTAGGGC
B10: NRC3_wobSeed44_DR1_A5T_o1 (dsDNA)
DNA 1: GCTGTATGAGGTTAAAGATCAGGGAACGTGGCGTCGGCGATTGACAGCGTAGAATGAAGG
DNA 2: CCTTCATTCTACGCTGTCAATCGCCGACGCCACGTTCCCTGATCTTTAACCTCATACAGC
B11: NRC3_wobSeed1_DR0_A20T_o1 (dsDNA)
DNA 1: GCCAAACTAGGTCAAGGTCTAAGTCGGTTTGTGCCAGCGATTGACAGCGTAGAATGAAGG
DNA 2: CCTTCATTCTACGCTGTCAATCGCTGGCACAAACCGACTTAGACCTTGACCTAGTTTGGC
B12: NRC3_wobSeed87_DR3_T15C_o1 (dsDNA)
DNA 1: GCCGAACTAGGTCACCCAGGACAGTGAATACATTGAGCGATTGACAGCGTAGAATGAAGG
DNA 2: CCTTCATTCTACGCTGTCAATCGCTCAATGTATTCACTGTCCTGGGTGACCTAGTTCGGC
B13: NRC3_wobSeed46_DR1_A5G_o1 (dsDNA)
DNA 1: GCTTGCCAAGGTGAAAGGTCGTTGATGCACGCCTTGGCGATTGACAGCGTAGAATGAAGG
DNA 2: CCTTCATTCTACGCTGTCAATCGCCAAGGCGTGCATCAACGACCTTTCACCTTGGCAAGC
B14: NRC3_wobSeed15_DR0_A18C_o1 (dsDNA)
DNA 1: B8 DNA 1 with A18C, A23G
DNA 2: B8 DNA 2 with T38C, T43G
B15: NRC3_wobSeed16_DR0_C7A_o1 (dsDNA)
DNA 1: GCCAGCATAGGTCAGGGCCAGTATAGGAGGAACGTTGCGATTGACAGCGTAGAATGAAGG
DNA 2: CCTTCATTCTACGCTGTCAATCGCAACGTTCCTCCTATACTGGCCCTGACCTATGCTGGC
B16: NRC3_wobSeed110_DR4_A15T_o1 (dsDNA)
DNA 1: GCTCTGCTAGGTCATCGATGGTCAGCTAATCTGCTAGCGATTGACAGCGTAGAATGAAGG
DNA 2: CCTTCATTCTACGCTGTCAATCGCTAGCAGATTAGCTGACCATCGATGACCTAGCAGAGC
B17: NRC3_wobSeed39_DR1_A16G_o1 (dsDNA)
DNA 1: GCCGAACTAGGTCAAGGGACAGTGAAAGGCGACGTAGCGATTGACAGCGTAGAATGAAGG
DNA 2: CCTTCATTCTACGCTGTCAATCGCTACGTCGCCTTTCACTGTCCCTTGACCTAGTTCGGC
B18: NRC3_wobSeed76_DR3_T5A_o1 (dsDNA)
DNA 1: GCCCAACTGGGCCAAAAAGGTCATTGATGCCGATAAGCGATTGACAGCGTAGAATGAAGG
DNA 2: CCTTCATTCTACGCTGTCAATCGCTTATCGGCATCAATGACCTTTTTGGCCCAGTTGGGC
B19: NRC3_wobSeed4_DR0_C7G_o1 (dsDNA)
DNA 1: GCCCTAGTGGGCCAAGGTCATTGATCAGTCAAAGCAGCGATTGACAGCGTAGAATGAAGG
DNA 2: CCTTCATTCTACGCTGTCAATCGCTGCTTTGACTGATCAATGACCTTGGCCCACTAGGGC
B20: NRC3_wobSeed76_DR3_A17G_o1 (dsDNA)
DNA 1: B18 DNA 1 with A5T, A17G
DNA 2: B18 DNA 2 with T44C, T56A
B21: NRC3_wobSeed12_DR0_T19C_o1 (dsDNA)
DNA 1: GCCCGACTGGGGCAAGGTCACCATAACGCACAGCCAGCGATTGACAGCGTAGAATGAAGG
DNA 2: CCTTCATTCTACGCTGTCAATCGCTGGCTGTGCGTTATGGTGACCTTGCCCCAGTCGGGC
B22: NRC3_wobSeed137_DR5_A5T_o1 (dsDNA)
DNA 1: GCATTTGTAGGTTACATCCGGGTCATTCAGGCTATGGCGATTGACAGCGTAGAATGAAGG
DNA 2: CCTTCATTCTACGCTGTCAATCGCCATAGCCTGAATGACCCGGATGTAACCTACAAATGC
B23: NRC3_wobSeed27_DR1_A9T_o1 (dsDNA)
DNA 1: GCACTCGGTGGACAAAGGTCAGAGCTACGCCAGTGAGCGATTGACAGCGTAGAATGAAGG
DNA 2: CCTTCATTCTACGCTGTCAATCGCTCACTGGCGTAGCTCTGACCTTTGTCCACCGAGTGC
B24: NRC3_wobSeed99_DR4_G16C_o1 (dsDNA)
DNA 1: GCTCTCGGAGGACACCAAAGGTCAGAGCTCGACATCGCGATTGACAGCGTAGAATGAAGG
DNA 2: CCTTCATTCTACGCTGTCAATCGCGATGTCGAGCTCTGACCTTTGGTGTCCTCCGAGAGC
B25: NRC3_wobSeed28_DR1_A14T_o1 (dsDNA)
DNA 1: GCCCTACTGGGCCTAAGGTCATTGATTCCAATGCTCGCGATTGACAGCGTAGAATGAAGG
DNA 2: CCTTCATTCTACGCTGTCAATCGCGAGCATTGGAATCAATGACCTTAGGCCCAGTAGGGC
B26: NRC3_wobSeed44_DR1_G17T_o1 (dsDNA)
DNA 1: B10 DNA 1 with T5A, G17T
DNA 2: B10 DNA 2 with C44A, A56T
B27: NRC3_wobSeed110_DR4_C26T_o1 (dsDNA)
DNA 1: B16 DNA 1 with T15A, C26T
DNA 2: B16 DNA 2 with G35A, A46T
B28: NRC3_wobSeed99_DR4_G16T_o1 (dsDNA)
DNA 1: B24 DNA 1 with C16T
DNA 2: B24 DNA 2 with G45A
B29: NRC3_wobSeed17_DR0_T21G_o1 (dsDNA)
DNA 1: GCATATGTAGGTTAGGGTCAGTCAGAAAGTAGGGAAGCGATTGACAGCGTAGAATGAAGG
DNA 2: CCTTCATTCTACGCTGTCAATCGCTTCCCTACTTTCTGACTGACCCTAACCTACATATGC
B30: NRC3_wobSeed76_DR3_G20T_o1 (dsDNA)
DNA 1: B18 DNA 1 with A5T, G20T
DNA 2: B18 DNA 2 with C41A, T56A

How the values were obtained:
Experiment in all cases: no ligand; PBM; 270 nM : 90 nM RXRa; PBS pH 7.4, 2% milk, 0.02% Triton X-100, 1 mM DTT, BSA, 0.4 mg/ml salmon testes DNA
PPARa:RXRa = PPARa:RXRa (Homo sapiens, UniProt Q07869;P19793 full;full); settings: tags: GST kept;His cleaved; copies: 1;1; label: surface-attached array probe
Procedure, shortened: (§1)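 Each nuclear receptor dimer, without ligand, was incubated for 1 h on custom Agilent 4×180K protein-binding microarrays. Binding was detected with antibodies against each partner (one per run), and scanned fluorescence was regression-normalized. The binding z-scores are referenced to random human genomic background probes.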

FXR:RXRa = FXR:RXRa (Homo sapiens, UniProt Q96RI1;P19793 full;full); settings: tags: His kept;His cleaved; copies: 1;1; label: surface-attached array probe
Procedure, shortened: as §1

RARg:RXRa = RARg:RXRa (Homo sapiens, UniProt P13631;P19793 full;full); settings: tags: His kept;His cleaved; copies: 1;1; label: surface-attached array probe
Procedure, shortened: as §1

Chain of FXR:RXRa (Q96RI1 whole entry, chain 1 of 2): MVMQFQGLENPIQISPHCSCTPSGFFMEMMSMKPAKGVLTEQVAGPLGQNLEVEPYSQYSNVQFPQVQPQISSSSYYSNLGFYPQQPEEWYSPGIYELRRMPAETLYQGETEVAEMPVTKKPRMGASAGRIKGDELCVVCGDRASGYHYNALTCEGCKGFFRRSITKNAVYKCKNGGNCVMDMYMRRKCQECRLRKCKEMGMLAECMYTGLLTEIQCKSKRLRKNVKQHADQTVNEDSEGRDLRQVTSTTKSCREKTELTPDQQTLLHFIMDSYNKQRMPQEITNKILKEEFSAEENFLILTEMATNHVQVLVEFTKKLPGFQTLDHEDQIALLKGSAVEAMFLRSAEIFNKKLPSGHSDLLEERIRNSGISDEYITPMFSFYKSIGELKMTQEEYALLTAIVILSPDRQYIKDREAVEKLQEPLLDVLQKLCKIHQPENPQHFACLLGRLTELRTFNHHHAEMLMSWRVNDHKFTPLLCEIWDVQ
Chain of FXR:RXRa (P19793 whole entry, chain 2 of 2): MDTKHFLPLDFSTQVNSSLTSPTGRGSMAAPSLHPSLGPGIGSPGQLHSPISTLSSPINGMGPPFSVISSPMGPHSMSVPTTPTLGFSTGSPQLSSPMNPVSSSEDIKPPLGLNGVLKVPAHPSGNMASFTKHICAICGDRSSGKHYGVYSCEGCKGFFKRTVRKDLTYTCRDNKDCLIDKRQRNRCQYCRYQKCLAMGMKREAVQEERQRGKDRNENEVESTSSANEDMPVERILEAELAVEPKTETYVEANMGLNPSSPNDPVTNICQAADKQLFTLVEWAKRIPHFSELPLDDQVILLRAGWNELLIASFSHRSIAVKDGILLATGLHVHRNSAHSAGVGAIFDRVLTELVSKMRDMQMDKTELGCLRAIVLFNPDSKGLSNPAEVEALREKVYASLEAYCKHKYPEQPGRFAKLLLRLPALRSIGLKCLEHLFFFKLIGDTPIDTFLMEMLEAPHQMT
Chain of PPARa:RXRa (Q07869 whole entry, chain 1 of 2): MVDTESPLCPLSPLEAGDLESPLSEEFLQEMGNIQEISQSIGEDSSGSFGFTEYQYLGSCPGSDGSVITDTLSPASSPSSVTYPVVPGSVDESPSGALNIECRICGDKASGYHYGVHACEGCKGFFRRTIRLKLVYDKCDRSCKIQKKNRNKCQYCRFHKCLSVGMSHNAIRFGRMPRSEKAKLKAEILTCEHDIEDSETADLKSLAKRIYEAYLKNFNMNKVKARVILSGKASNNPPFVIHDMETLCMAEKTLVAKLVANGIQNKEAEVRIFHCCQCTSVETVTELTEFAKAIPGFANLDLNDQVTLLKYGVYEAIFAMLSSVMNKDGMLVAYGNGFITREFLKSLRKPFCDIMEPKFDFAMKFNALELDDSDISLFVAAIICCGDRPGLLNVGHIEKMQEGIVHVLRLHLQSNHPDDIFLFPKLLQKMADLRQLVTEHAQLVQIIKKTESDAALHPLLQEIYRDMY
Chain of PPARa:RXRa (P19793 whole entry, chain 2 of 2): as the sequence (P19793 whole entry, chain 2 of 2) above
Chain of RARg:RXRa (P13631 whole entry, chain 1 of 2): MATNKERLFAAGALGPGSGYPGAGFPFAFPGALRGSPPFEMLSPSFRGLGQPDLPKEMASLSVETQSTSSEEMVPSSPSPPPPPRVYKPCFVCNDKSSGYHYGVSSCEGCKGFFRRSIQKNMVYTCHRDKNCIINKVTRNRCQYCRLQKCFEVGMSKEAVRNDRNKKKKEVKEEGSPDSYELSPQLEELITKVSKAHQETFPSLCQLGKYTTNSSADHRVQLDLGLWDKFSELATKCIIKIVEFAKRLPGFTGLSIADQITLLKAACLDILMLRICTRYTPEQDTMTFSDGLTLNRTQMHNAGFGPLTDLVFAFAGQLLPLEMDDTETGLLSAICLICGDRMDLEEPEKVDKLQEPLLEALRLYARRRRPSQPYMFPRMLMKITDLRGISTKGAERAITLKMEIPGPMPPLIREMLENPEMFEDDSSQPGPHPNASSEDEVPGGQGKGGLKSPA
Chain of RARg:RXRa (P19793 whole entry, chain 2 of 2): as the sequence (P19793 whole entry, chain 2 of 2) above

Binder	binding signal (PPARa:RXRa)	binding signal (FXR:RXRa)	binding signal (RARg:RXRa)
B1	0.45 PBM z-score against 500 random probes	0.31 PBM z-score against 500 random probes	–
B2	–	-0.43 PBM z-score against 500 random probes	-0.2 PBM z-score against 500 random probes
B3	–	-0.44 PBM z-score against 500 random probes	-0.37 PBM z-score against 500 random probes
B4	-0.77 PBM z-score against 500 random probes	-0.46 PBM z-score against 500 random probes	–
B5	6.53 PBM z-score against 500 random probes	7.9 PBM z-score against 500 random probes	–
B6	6.51 PBM z-score against 500 random probes	7.78 PBM z-score against 500 random probes	–
B7	3.44 PBM z-score against 500 random probes	4.17 PBM z-score against 500 random probes	–
B8	–	3.73 PBM z-score against 500 random probes	–
B9	–	3.71 PBM z-score against 500 random probes	–
B10	–	3.64 PBM z-score against 500 random probes	–
B11	–	3.61 PBM z-score against 500 random probes	–
B12	–	3.58 PBM z-score against 500 random probes	–
B13	–	3.55 PBM z-score against 500 random probes	–
B14	–	3.52 PBM z-score against 500 random probes	–
B15	–	3.48 PBM z-score against 500 random probes	–
B16	–	3.45 PBM z-score against 500 random probes	–
B17	–	3.42 PBM z-score against 500 random probes	–
B18	–	3.39 PBM z-score against 500 random probes	–
B19	–	3.34 PBM z-score against 500 random probes	–
B20	–	3.31 PBM z-score against 500 random probes	–
B21	–	3.29 PBM z-score against 500 random probes	–
B22	–	3.26 PBM z-score against 500 random probes	–
B23	–	3.23 PBM z-score against 500 random probes	–
B24	–	3.18 PBM z-score against 500 random probes	–
B25	–	3.15 PBM z-score against 500 random probes	–
B26	–	3.09 PBM z-score against 500 random probes	–
B27	–	3.07 PBM z-score against 500 random probes	–
B28	–	3.03 PBM z-score against 500 random probes	–
B29	–	3 PBM z-score against 500 random probes	–
B30	–	0.49 PBM z-score against 500 random probes	–
